Reference: US7371529B2, “Methods and compositions for modulating gluconeogenesis using PGC-1” (Dana-Farber Cancer Institute, Inc., priority 2001, dated 2008)

Molecular target: T1, FKHR (Homo sapiens, UniProt Q12778)
T1 construct: made in house; host or cells: in vitro translation
Experiment: In vitro interaction with in vitro translated FKHR
Assay type: binding
Details: GST fusion constructs

T1 sequence (Q12778 whole entry, species assumed): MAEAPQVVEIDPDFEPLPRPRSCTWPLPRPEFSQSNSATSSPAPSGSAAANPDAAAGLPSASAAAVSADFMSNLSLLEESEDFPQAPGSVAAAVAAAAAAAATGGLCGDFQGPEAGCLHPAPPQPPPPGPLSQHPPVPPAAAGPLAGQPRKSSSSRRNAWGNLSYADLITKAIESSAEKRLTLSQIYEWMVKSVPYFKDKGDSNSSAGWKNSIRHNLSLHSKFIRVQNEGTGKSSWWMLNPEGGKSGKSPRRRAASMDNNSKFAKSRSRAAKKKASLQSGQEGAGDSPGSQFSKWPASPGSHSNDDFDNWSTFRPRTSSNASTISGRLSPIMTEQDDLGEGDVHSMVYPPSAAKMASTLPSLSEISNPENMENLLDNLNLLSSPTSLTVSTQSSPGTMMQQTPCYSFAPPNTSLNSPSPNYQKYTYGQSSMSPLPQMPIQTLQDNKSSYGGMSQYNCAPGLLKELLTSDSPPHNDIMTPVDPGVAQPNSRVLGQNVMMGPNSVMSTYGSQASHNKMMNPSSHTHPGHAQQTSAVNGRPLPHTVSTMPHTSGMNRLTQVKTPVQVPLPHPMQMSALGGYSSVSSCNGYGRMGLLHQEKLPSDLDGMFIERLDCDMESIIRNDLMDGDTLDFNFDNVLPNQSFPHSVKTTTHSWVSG

B1: GST-PGC-1 (amino acids 1-190): GST fusion protein of amino acids 1-190 of PGC-1 (SEQ ID NO:2) (protein)
chain: MAWDMCSQDSVWSDIECAALVGEDQPLCPDLPELDLSELDVNDLDTDSFLGGLKWCSDQSEIISNQYNNEPANIFEKIDEENEANLLAVLTETLDSLPVDEDGLPSFDALTDGAVTTDNEASPSSMPDGTPPPQEAEEPSLLKKLLLAPANTQLSYNECSGLSTQNHAANHTHRIRTNPAIVKTENSWSN
modifications: left off: a dimerising Fc or GST
**Q.** With B1 as the molecule, how does the “physical interaction with FKHR” value read?
**A.** Its value is “not”.
